Assay results as given in patent US20090221691A1 (UNIVERSITY OF ROCHESTER, published 2009).

Biological target: T1, biotinylated Gβ1γ2, wild-type (BAP-rat Gβ1 with Gγ2) (rat, UniProt P54311 1-340; P63212 2-68, biotin on the lysine acceptor residue of the BAP)
T1 construct: immobilized on streptavidin in the assays; also called b-βγ; b-Gβ1γ2; not shown: 20 amino acid biotin acceptor peptide (BAP) fused to the N-terminus
Experiment: flow cytometry competition, blocking Gα-Gβγ interactions
Method: Assays were used to determine peptide effects on Gα-Gβγ interactions included competition and dissociation assays (Ghosh, et al. (2003) supra). […] The bead-associated fluorescence was then recorded in a BD Biosciences FACSCALIBUR™ flow cytometer. Data was corrected for background fluorescence and fit with a sigmoid dose response curve using Graph Pad Prism 4.

SIRKALNILAYPDYD (Free peptide) [SIRK(Gly10Ala)]
IC50: ~80 µM
